What is called Kd is the free concentration of one partner at which half of the binding sites on the other are occupied at equilibrium, for simple one-to-one binding. By EC50 is commonly meant the concentration that produces a half-maximal response. Read a low EC50 as a more potent agent.

Test [1] has as its target ON103 and ON203 versus C0008 (SPR, Fig. 1D). Kind of test: SPR; Biacore 3000; antibodies amine-coupled to CM5 chips (about 2,500; 1,500; 1,000 RU); MIF at 42-666 nmol/L in HBS-EP with 0.2% Proclin300 (3 hours, room temperature), 30 uL/minute; Langmuir 1:1 model with mass transfer; mean of flow cells 2-4.
The target of test [2] is all anti-oxMIF antibodies (quantitative oxMIF ELISA, Fig. 1C). Kind of test: ELISA; quantitative oxMIF ELISA: 15 nmol/L C0008, ON103 or ON203 as capture antibodies; human or mouse MIF in buffers with 0.2% Proclin300 as standard curves; EC50. On the technique in general: In an ELISA, binding on a coated surface is turned into a signal by an enzyme label.

B1: human MIF treated with 0.2% Proclin300 (oxMIF surrogate) (natural protein)
chain: MPMFIVNTNVPRASVPDGFLSELTQQLAQATGKPPQYIAVHVVPDQLMAFGGSSEPCALCSLHSIGKIGGAQNRSYSKLLCGLLAERLRISPDRVYINYYDMNAANVGWNNSTFA
modifications: treated with 0.2% Proclin300 to transform MIF into an oxMIF surrogate
In turn, B1 gave a Kd in test [1] of 3.5 to 6.1 nM. Moreover, in test [2], the EC50 was in the range of 0.6 to 0.7 nM.

The values above are taken from publication PMC10157364.
